This is an account of results in US20210355220A1 (TIKCRO TECHNOLOGIES, published 2021).

Assay [1] addresses non-recycling version of CTLA-4 on CTLA-4 effector cells (Promega CS186920) (human, UniProt P16410 36-223). The experiment in a line: cell-based or functional assay.
For assay [2], the target named is T1, Recombinant human CTLA-4-his (Sino Biologicals, 11159-H08H) (human, UniProt P16410 36-162).
T1 construct: Bought protein; also called dimer hCTLA-4; not shown: his tag
Description: SPR (Biacore T100), antibody captured on anti-human chip, CTLA-4-his in solution. As to the method:
Recombinant human CTLA-4-his (Sino Biologicals, 11159-H08H) was added in a serial 2-fold dilution, starting at a concentration of 500nM. […] The measurement was corrected using the baseline channel and the protein-antibody interaction was measured by the change in surface resonance and quantified with Biacore T100 control software (version 2.0.4).

Chain of non-recycling version of CTLA-4 on CTLA-4 effector cells (Promega CS186920) (P16410 36-223): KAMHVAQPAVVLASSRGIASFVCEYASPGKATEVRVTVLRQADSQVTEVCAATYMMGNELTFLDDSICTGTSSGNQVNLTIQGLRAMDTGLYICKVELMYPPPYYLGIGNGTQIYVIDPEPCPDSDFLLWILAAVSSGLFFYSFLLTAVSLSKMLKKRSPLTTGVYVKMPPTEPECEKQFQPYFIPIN
T1 sequence (P16410 36-162 limits assumed): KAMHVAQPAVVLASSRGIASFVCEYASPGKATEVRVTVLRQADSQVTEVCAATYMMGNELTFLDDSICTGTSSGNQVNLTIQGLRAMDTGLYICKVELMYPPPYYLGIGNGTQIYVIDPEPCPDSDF

B1: Ab55h (antibody, V domains shown)
VH: QVQLQESGPGLVKPSETLSLTCAVSGYSISGDYYWGWIRQPPGKGLEWIGSIYHSGYTYYNPSLKSRVTISVDTSKNQFSLKLSSVTAADTAVYYCARDSGWYVIAFDYWGQGTLVTVSS
VL: EIVMTQSPATLSVSPGERATLSCRASQSVSSNLAWYQEKPGQAPRLLIYGASTRATGIPARFSGSGSGTEFTLTISSLQSEDFAVYYCQQYNNWPPLTFGGGTKVEIK
notes: Human form, compared with an hIgG1 isotype control
With B1, in assay [1], the “NFAT reporter EC50” value was found to be 630 pM and the “NFAT reporter EC50, Ratio Ipilimumab:Ab55h” value was 3.65 fold. In assay [2], the Kd (usually the concentration at which binding is half-saturated) was found to be 860 pM and the koff (commonly the first-order rate constant of dissociation) worked out at 0.0006 s⁻¹.
